What all share (experiment): cell-based or functional assay
In experiment [1] the target is Env of 92 subtype B viruses.
In experiment [2] the target is 22 primary HIV-1 isolates or clones (mean over all viruses of Table 13).
The target in experiment [3] is HIV-1 Env (gp120) of 4 primary HIV-1 isolates or molecular clones on infected CEM-NKr-CCR5-LucR CD4 T cells.

A value given as a limit tells only on which side of the number the result lay.

B1: PGT121.56 (antibody, human IgG1, lambda)
heavy: QMQLQESGPGLVKPSETLSLTCSVSGASISDSYWSWIRRSPGKGLEWIGYVHKSGDTNYSPSLKSRVNLSLDTSKNQVSLSLVAATAADSGKYYCARTLHGRRIYGIVAFNEWFTYFYMDVWGNGTQVTVSSASTKGPSVFPLAPSSKSTSGGTAALGCLVKDYFPEPVTVSWNSGALTSGVHTFPAVLQSSGLYSLSSVVTVPSSSLGTQTYICNVNHKPSNTKVDKKVEPKSCDKTHTCPPCPAPELLAGPDVFLFPPKPKDTLMISRTPEVTCVVVDVSHEDPEVKFNWYVDGVEVHNAKTKPREEQYNSTYRVVSVLTVLHQDWLNGKEYKCKVSNKALPLPEEKTISKAKGQPREPQVYTLPPSREEMTKNQVSLTCLVKGFYPSDIAVEWESNGQPENNYKTTPPVLDSDGSFFLYSKLTVDKSRWQQGNVFSCSVLHEALHSHYTQKSLSLSPGK
light: not shown
In experiment [1], B1 yielded a Coverage (%) of 62% and a Median IC95 (neutralization) of 0.265 µg/mL.

B2: PGT121.60 hIgG1/hLambda (antibody)
heavy: QMQLQESGPGLVKPSETLSLTCSVSGASISDSYWSWIRRSPGKGLEWIGYVHKSGDTNYNPSLKSRVHLSLDTSKNQVSLSLTGVTAADSGKYYCARTLHGRRIYGIVAFNEWFTYFYMDVWGTGTQVTVSSASTKGPSVFPLAPSSKSTSGGTAALGCLVKDYFPEPVTVSWNSGALTSGVHTFPAVLQSSGLYSLSSVVTVPSSSLGTQTYICNVNHKPSNTKVDKKVEPKSCDKTHTCPPCPAPELLAGPDVFLFPPKPKDTLMISRTPEVTCVVVDVSHEDPEVKFNWYVDGVEVHNAKTKPREEQYNSTYRVVSVLTVLHQDWLNGKEYKCKVSNKALPLPEEKTISKAKGQPREPQVYTLPPSREEMTKNQVSLTCLVKGFYPSDIAVEWESNGQPENNYKTTPPVLDSDGSFFLYSKLTVDKSRWQQGNVFSCSVLHEALHSHYTQKSLSLSPGK
light: not shown
Turning to B2, in experiment [1], the Coverage (%) was 59.8% and the Median IC95 (neutralization) was 0.177 µg/mL. In addition, in experiment [2], the EC50 (µg/mL), killing of HIV-infected cells (Mean; mean over all viruses) stood at 1.03 µg/mL and the Emax, killing of HIV-infected cells (Mean; mean over all viruses) came to 56%. Besides, in experiment [3], the EC50 of killing infected cells, median was more than 100 µg/mL and the proportion of infected cells killed (Emax), median was 18%.
